Laboratory results taken from patent publication US8710017B2, “Human and mouse targeting peptides identified by phage display” (priority 2000, dated 2014).
Ends that are not written are not given here.

How the values were obtained:
GST-β1 integrin = GST-β1 integrin (Homo sapiens, UniProt P05556); assay: Annexin V binding to GST-β1 cytoplasmic domain (ELISA); conditions: FIG. 20A
Method: (§1) Competitive binding assays were performed to examine the binding of Annexin V to β5 integrin and the effect of the VISY peptide. Plates were coated with GST fusion proteins of the cytoplasmic domains of various integrins and Annexin V was added to the plates. Binding of Annexin V was determined using anti-Annexin V antibodies. […] Calcium was used because Annexin V activity has been reported to be modulated by calcium. Binding of Annexin V to GST-β5 was blocked by addition of the VISY peptide (FIG. 20A).

GST-β3 integrin = biological target: T1, GST-β3 integrin (Homo sapiens, UniProt P05106); assay: Annexin V binding to GST-β3 cytoplasmic domain (ELISA); conditions: FIG. 20A
T1 construct: recombinant fusion proteins containing β3 or β5 cytoplasmic domains
T1 sequence (P05106 742-788 limits assumed): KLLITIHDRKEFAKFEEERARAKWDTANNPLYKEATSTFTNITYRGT
Method: as §1

GST-β5 integrin = biological target: T2, GST-β5 integrin (Homo sapiens, UniProt P18084); assay: Annexin V binding to GST-β5 cytoplasmic domain (ELISA), competition with VISY peptide
T2 construct: Plates were coated with GST fusion proteins of the cytoplasmic domains of various integrins and Annexin V was added to the plates
T2 sequence (P18084 743-799 limits assumed): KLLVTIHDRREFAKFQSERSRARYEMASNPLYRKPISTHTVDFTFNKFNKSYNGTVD
Method: as §1
A reciprocal study was performed, using Annexin V to coat plates and adding GST fusion proteins of integrin cytoplasmic domains. Binding was assessed using anti-GST fusion protein antibodies. […] In some studies, calcium ion appeared to interfere with the binding interaction between GST-β5 and Annexin V, with decreased binding observed in the presence of calcium (not shown).

HUVEC cells = assay: Apoptosis assay (propidium iodide staining, subdiploid population); format: cell-based, human; conditions: 15 μM, 4 hours, FIG. 17
Method: FIG. 17. Penetratin peptide chimera binding to the β5 cytoplasmic domain induces programmed cell death. 10^6 HUVEC cells were harvested in complete media and 15 μM penetratin peptide chimeras were added to the cells.
Approximately 1×10^6 cells were harvested in complete media and 15 μM of peptide added for 4, 8, or 12 h. The cells were then washed in PBS and resuspended in 0.5 ml propidium iodide solution (50 μg/ml PI, 0.1% Triton X-100, 0.1% sodium citrate). After a 24-h incubation at 4° C., cells were counted with a XL Coulter (Coulter Corporation) with a 488-nm laser; 12,000 cells were counted for each histogram, and cell cycle distributions were analyzed with Multicycle program.
Approximately 1×10^6 cells were harvested in complete medium, and 15 μM of peptide was added for 4, 8, or 12 hours. The cells were then washed in PBS and resuspended in 0.5 ml propidium iodide solution (50 μg/ml PI, 0.1% Triton X-100, 0.1% sodium citrate). After a 24-h incubation at 4° C., the cells were counted with an XL Coulter (Coulter Corporation) with a 488 nm laser; 12,000 cells were counted for each histogram, and cell cycle distributions were analyzed with the Multicycle program.

HUVEC = assay: Apoptosis by chromatin fragmentation (agarose gel) in HUVEC; format: cell-based, human; conditions: 15 μM, 2-4 hours, FIG. 21
Method: 10^6 HUVEC were treated with 15 μM of VISY antennapedia (penetratin) chimera or 15 μM of antennapedia peptide (pentratin) alone for 2-4 hours and chromatin fragmentation was analyzed by electrophoresis in an agarose gel.

[1] = biological target: T3, β5 integrin cytoplasmic domain (Homo sapiens, UniProt P18084); assay: Binding of Fyn-phosphorylated phage to β5 cytoplasmic domain
T3 construct: the screenings involving the β5 cytoplasmic domain fusion protein
T3 sequence (P18084 743-799 limits assumed): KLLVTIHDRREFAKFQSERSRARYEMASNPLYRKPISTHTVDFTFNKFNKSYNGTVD
Method: Phosphorylation of peptide libraries with src family protein kinases (Fyn, c-Src, Lyn, and Syc) and serine/threonine kinases such as a MAP kinase were performed as described previously (Schmitz et al., 1996; Dente et al., 1997; Gram et al., 1997). Briefly, phage particles were collected from culture supernatants by double precipitation with 20% polyethylene glycol 8000 in 2.5 M NaCl. Particles were dissolved at 10^12 particles/ml. Purified phage (10 μl) were incubated for 3 hours at room temperature with different concentrations (35 to 3,500 units) of protein kinases in a reaction buffer volume of 50 μl. The reaction mixtures were transferred to tubes containing 10 μg of agarose-conjugated anti-P-Tyr, anti-P-Ser, or anti-P-Thr monoclonal antibodies to select phage displaying phosphorylated peptides. […] Phosphorylated peptides binding to β3 and β5 cytoplasmic domains were analyzed as described in the previous section.
Randomly selected clones from rounds III and IV were sequenced from a X4YX4 phosphorylated library with Fyn. […] The ratio of binding to β3 or β5 was calculated by dividing the number of β3 or β5 colonies by GST or BSA colonies found after panning. The ratio of binding to β3 or β5 with phosphorylated phage by Fyn versus unphosphorylated phage was calculated by dividing the number of colonies found after the panning. […]

[2] = biological target: T4, β3 integrin cytoplasmic domain (Homo sapiens, UniProt P05106); assay: Phage binding to immobilized GST-β3cyto
T4 construct: recombinant fusion proteins containing β3 or β5 cytoplasmic domains
T4 sequence (P05106 742-788 limits assumed): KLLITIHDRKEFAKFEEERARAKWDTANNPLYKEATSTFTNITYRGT
Method: FIG. 9. Binding of β3 cytoplasmic domain-selected phage to immobilized proteins. GST fusion proteins or GST alone were coated on microtiter wells at 10 μg/ml and used to bind phage expressing endostatin targeting peptides. […] The data represent the mean colony counts from triplicate wells, with standard error of less than 10% of the mean.
β3 and β5 cytoplasmic domain-binding peptides were isolated by screening multiple phage libraries with recombinant GST fusion proteins that contained either GST-β3cyto or GST-β5cyto coated onto microtiter wells. Immobilized GST was used as a negative control for enrichment during the panning of each cytoplasmic domain. Phage were sequenced from randomly selected clones after three rounds of panning as disclosed elsewhere (Koivunen et al., 1995; Pasqualini et al., 1995). Distinct sequences were isolated that interacted specifically with the β3 or with the β5 cytoplasmic domains (Table 9). Randomly selected clones from panning rounds II and III were sequenced. […] The ratios were calculated by dividing the number of colonies recovered from β3-GST-coated wells and those recovered from GST or BSA.
The specificity of the interaction with β3 or β5 cytoplasmic domains was determined by calculating the ratios between the number of phage bound to the cytoplasmic domain containing-fusion proteins (β3 or β5) versus GST alone (negative control). […]

mouse spleen = assay: In vivo spleen targeting of Fab phage clones by BRASIL; conditions: 5 minutes circulation, FIG. 5
mouse spleen cells = assay: In vitro binding of Fab phage clones to spleen cells by BRASIL; format: cell-based
Method: A singe cell suspension was prepared from two mouse spleens. The suspension was divided into five tubes and incubated on ice with 3×10^9 TU of Fab clones #2, #6, #10, #12 and 2×10^9 TU tet-phage. Phage bound to mouse spleen cells were recovered by BRASIL. 200 μl of log phase ER2537 E. coli was infected with the pellet and serial dilutions were plated on LB/carbenicillin and LB/tetracyclin plates for assessment of phage binding. Fd-tet was used as an internal control to normalize all the phage homing experiments.

GST-β1 integrin, sequence (P05556 752-798 limits assumed): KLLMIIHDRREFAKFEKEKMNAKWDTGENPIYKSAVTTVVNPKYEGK

Molecule: Annexin V: 36 kDa endogenous protein analog of the VISY peptide, ligand of β5 integrin cytoplasmic domain
- binding of Annexin V to GST-β1 integrin (GST-β1 integrin): did not bind
- binding of Annexin V to GST-β3 integrin (GST-β3 integrin): did not bind
- binding of Annexin V to GST-β5 integrin (GST-β5 integrin; FIG. 20A): bound strongly
- binding of Annexin V to GST-β5 integrin (GST-β5 integrin; Tris-buffered saline (TBS)): Low binding
- binding of Annexin V to GST-β5 integrin (GST-β5 integrin; cytoplasmic buffer with or without added calcium (2 mM)): high binding

Molecule: VISY-penetratin chimera: chimeric peptide containing VISY peptide (VVISYSMPD) linked to penetratin (antennapedia), plus a biotin moiety (VVISYSMPDRQIKIWFQNRRMKWKK; also: plus a biotin moiety, site not given here)
- induction of apoptosis (PI staining) (HUVEC cells): induction of apoptosis
- induction of apoptosis (chromatin fragmentation) (HUVEC): induction of apoptosis

Molecule: TMLRYFMFP
- Phos/Unphos ([1]; phage phosphorylated by Fyn versus unphosphorylated phage): 4.2

Molecule: AGWLYMSWK
- β3/BSA Ratio ([2]; colonies from β3-GST-coated wells divided by those from BSA): 2.4
- β3/GST Ratio ([2]; colonies from β3-GST-coated wells divided by those from GST): 1.8

Molecule: TLRKYFHSS
- β3 or β5/GST ([1]; X4YX4 library phosphorylated with Fyn): 5.6

B1: Fab clone #6: chicken Fab phage clone from α-spleen library, localized in mouse spleen (protein)
scFv: CQPAMAAVTLDESGGGLQTPGGTLSLVCKASGISIGYGMNWVRQAPGKGLEYVASISGDGNFAHYGAPVKGRATISRDDGQNTVTLQLNNLR
modifications: Fab format
- binding to spleen compared to Fd-tet phage (mouse spleen): many-fold increased binding to spleen
- binding to mouse spleen cells compared to Fd-tet insertless control phage (mouse spleen cells; FIG. 3): lowest degree of differential binding
- binding to mouse spleen cells, direct comparison with NPC-3TT (mouse spleen cells; FIG. 4): only slightly higher than the binding of phage NPC-3TT
